Laboratory results published in IntAct's records for PubMed 25803835.

B1: Serine/threonine-protein kinase TBK1 (Homo sapiens), Q9UHD2 (parent)
chain: MQSTSNHLWLLSDILGQGATANVFRGRHKKTGDLFAIKVFNNISFLRPVDVQMREFEVLKKLNHKNIVKLFAIEEETTTRHKVLIMEFCPCGSLYTVLEEPSNAYGLPESEFLIVLRDVVGGMNHLRENGIVHRDIKPGNIMRVIGEDGQSVYKLTDFGAARELEDDEQFVSLYGTEEYLHPDMYERAVLRKDHQKKYGATVDLWSIGVTFYHAATGSLPFRPFEGPRRNKEVMYKIITGKPSGAISGVQKAENGPIDWSGDMPVSCSLSRGLQVLLTPVLANILEADQEKCWGFDQFFAETSDILHRMVIHVFSLQQMTAHKIYIHSYNTATIFHELVYKQTKIISSNQELIYEGRRLVLEPGRLAQHFPKTTEENPIFVVSREPLNTIGLIYEKISLPKVHPRYDLDGDASMAKAITGVVCYACRIASTLLLYQELMRKGIRWLIELIKDDYNETVHKKTEVVITLDFCIRNIEKTVKVYEKLMKINLEAAELGEISDIHTKLLRLSSSQGTIETSLQDIDSRLSPGGSLADAWAHQEGTHPKDRNVEKLQVLLNCMTEIYYQFKKDKAERRLAYNEEQIHKFDKQKLYYHATKAMTHFTDECVKKYEAFLNKSEEWIRKMLHLRKQLLSLTNQCFDIEEEVSKYQEYTNELQETLPQKMFTASSGIKHTMTPIYPSSNTLVEMTLGMKKLKEEMEGVVKELAENNHILERFGSLTMDGGLRNVDCL
B2: Serine/threonine-protein kinase TBK1 (Homo sapiens), Q9UHD2 (parent)
chain: B1 chain
partner: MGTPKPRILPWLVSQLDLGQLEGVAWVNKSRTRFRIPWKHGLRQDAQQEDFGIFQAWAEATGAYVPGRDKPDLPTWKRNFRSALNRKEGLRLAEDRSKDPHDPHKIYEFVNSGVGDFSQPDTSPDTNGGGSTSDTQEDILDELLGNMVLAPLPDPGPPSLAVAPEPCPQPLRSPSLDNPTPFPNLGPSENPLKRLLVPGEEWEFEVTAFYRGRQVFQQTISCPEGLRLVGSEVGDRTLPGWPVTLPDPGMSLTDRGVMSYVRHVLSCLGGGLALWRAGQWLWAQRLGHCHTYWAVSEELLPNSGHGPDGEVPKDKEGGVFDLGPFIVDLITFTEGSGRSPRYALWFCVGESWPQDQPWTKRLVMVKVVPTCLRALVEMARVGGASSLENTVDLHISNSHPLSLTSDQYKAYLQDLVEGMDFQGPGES

Variants of: B1
Conditions: with optn_human OPTN

| Variant | effect of a mutation on the interaction |
| --- | --- |
| R357Q | disrupting interaction strength |
| E696K | disrupting interaction strength |

Variants of: B1
Conditions: with optn_human OPTN
Remark: another data set of the same source

| Variant | effect of a mutation on the interaction |
| --- | --- |
| R357Q | decreasing interaction strength |
| K38A | with no effect |
| R47H | increasing interaction strength |
| R308Q | with no effect |
| M559R | disrupting interaction strength |

Variants of: B2
Conditions: with irf3_human IRF3, Q14653

| Variant | effect of a mutation on the interaction |
| --- | --- |
| R47H | increasing interaction strength |
| R308Q | decreasing interaction strength |
| R357Q | disrupting interaction strength |
| M559R | disrupting interaction strength |
| E696K | decreasing interaction strength |
